± gives the standard deviation of the averaged measurements.
System: Saccharomyces cerevisiae
Assay: protein stability index of tFT-peptide fusion (C-terminal peptide) (PSI (0-1 scale)); higher = more stable (slower turnover)
Settings: genetic background: wild type; temperature: 30 C
Description: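 Multiplexed protein stability (MPS) profiling in S. cerevisiae. Random 12-aa peptides (tFT-X12 library) are fused to the C-terminus of a sfGFP-mCherry tandem fluorescent timer, after mCherry and a GGGS linker. Cells are FACS-sorted into 8 mCherry/sfGFP bins and deep-sequenced. The protein stability index (PSI) is the read-weighted bin average, scaled from 0 (unstable) to 1 (stable). Only peptides with >10 reads are reported; cells were grown at 30 °C in SC-His with glucose.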
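Further: PSI is a weighted mean of sequencing reads over stability bins, variants kept only with over 10 reads, mCherry proximal and sfGFP distal, peptide attached via GGGS linker.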

Sequence	protein stability index
FGTATPPPTLPP	0.727 ± 0.02
LRPCSSLPSTPP	0.718 ± 0.049
LFRRPLLRPPPF	0.745 ± 0.024
KEEKLKNKITKY	0.679 ± 0.011
SVRHPPWDHRPP	0.571 ± 0.083
NPPAPPAPHLST	0.685 ± 0.013
GVRPWGGMCSCL	0.7046 ± 0.0024
PEQKKRKVKIKK	0.686 ± 0.16
DVAWHNYRISGK	0.673 ± 0.015
CRSGSGGGIRGR	0.741 ± 0.011
PPPPPTPSTRTS	0.667 ± 0.015
PPPSPPSGALTP	0.763 ± 0.053
TPAPLLPRRTPP	0.734 ± 0.073
CERHWADRNTSV	0.7445 ± 0.0064
LRGVDSALCGAR	0.693 ± 0.082
DFIEINFDLFPP	0.6382 ± 0.00098
RCYSFTKIRNNL	0.718 ± 0.13
PPSPSLPPPPRS	0.699 ± 0.055
SRMRADRYWRNY	0.622 ± 0.019
PSPPFPPPSPPP	0.687 ± 0.02
RYGHSVLQSGIS	0.73 ± 0.042
KCLALSAGWIAT	0.627 ± 0.033
AGVGLAETAGDD	0.677 ± 0.016
LAFFPRGTPPHS	0.67 ± 0.029
TTKRQKRKKKQR	0.633 ± 0.015

Sequence	protein stability index
GGGRRVCGVLAV	0.619 ± 0.013
PPPRPPPPPPVP	0.707 ± 0.041
PRGRSRPRCVIR	0.684 ± 0.13
TLRPKASPPAAL	0.642 ± 0.021
INKKKKKKSKQK	0.7 ± 0.089
EPAAHCGERRHL	0.608 ± 0.064
DRAPPPPRSSPL	0.733 ± 0.076
GGGGSCWYGNRL	0.6353 ± 0.0027
TPLNPLYCPPTP	0.6384 ± 0.0061
IAVSSHPVLVCK	0.5961 ± 0.0029
SPDFSVITKSYL	0.764 ± 0.032
PPLQRFSYRPGR	0.754 ± 0.069
DVILVSLPPPSV	0.676 ± 0.049
GRAVPKTHPGNL	0.7686 ± 0.0037
KCCRVTCCGGLR	0.65 ± 0.028
SPPLPPPPPFPL	0.74 ± 0.053
PPPYPFPHLSPL	0.713 ± 0.029
CCLSFMSPFFCF	0.75 ± 0.026
LPPLLLPTRPLS	0.662 ± 0.12
LGWVGGGGGWGC	0.704 ± 0.03
VVRQDQPDLKSS	0.691 ± 0.008
FFACHDGYWCGC	0.778 ± 0.036
CLTHLLPPAFPC	0.694 ± 0.018
KKNKNKEYCKVK	0.734 ± 0.082
LCPVGLGFFVGL	0.666 ± 0.056

Sequence	protein stability index
WWGCLGGRAGSR	0.695 ± 0.028
WLGTGIILPITG	0.793 ± 0.13
QCRSLVGGCCVW	0.693 ± 0.031
SGVGLAETAGDD	0.68 ± 0.027
FCWLCRFADSPF	0.733 ± 0.078
GESWEKVMNKRM	0.704 ± 0.049
KEMRCRKKKEGK	0.683 ± 0.048
CICFLDGCSFVN	0.755 ± 0.14
EWLRYNKDKRKI	0.774 ± 0.14
RGARGGRLVCRE	0.689 ± 0.043
PTSPHPPPCSPP	0.724 ± 0.22
IRGYSVKRIRED	0.683 ± 0.045
GGGLGRRLLGGR	0.69 ± 0.078
GVGFRVVRTSGR	0.6859 ± 0.0018
ASPLYPRPPVRG	0.651 ± 0.014
AMPLPPPTPPRS	0.627 ± 0.027
SLVSWAGLLFWG	0.727 ± 0.058
PLPPSAPPLPPS	0.778 ± 0.091
VRDVIGWGEEEY	0.708 ± 0.017
TPKTTGRPCDRT	0.69 ± 0.0098
CGLGGLYLVLHD	0.671 ± 0.067
YGRLPNWGASTE	0.714 ± 0.014
ARLGKASYSVFS	0.729 ± 0.027
RPSLPPSPPPPP	0.848 ± 0.22
VTSTVPRFPQFT	0.667 ± 0.014

Sequence	protein stability index
GFGILGLPQPCV	0.662 ± 0.067
REKQRYEERLRE	0.636 ± 0.018
VSLVDRFVLAIV	0.5619 ± 0.0011
FLRLSPQFASFP	0.677 ± 0.083
LLSPPFPPPAMV	0.6948 ± 0.0017
CIFFSPFSFLLP	0.654 ± 0.035
GGSVGSGSRLVV	0.715 ± 0.038
GFWSRIGDLFRG	0.698 ± 0.037
DFLRCPPLFEFS	0.721 ± 0.087
RGIRDQRKSKDK	0.663 ± 0.029
QNLYLSFLRIKL	0.624 ± 0.0088
PTARIPGLYLFP	0.695 ± 0.049
RGGSVDCRGNPL	0.656 ± 0.013
DRSMRPISKRWE	0.668 ± 0.037
GMLSIHWNIGGT	0.725 ± 0.014
PHPATLPPPAPT	0.699 ± 0.032
TGKWRSFQAYYY	0.667 ± 0.039
GRRNVGLKNSGL	0.645 ± 0.028
ASPAASSPYGTR	0.733 ± 0.051
GYAGSRRLGLQE	0.641 ± 0.015
RKVVLLFGLGEG	0.669 ± 0.026
VAFPRSSTLGPY	0.696 ± 0.027
TEYRRRPNETAM	0.705 ± 0.037
VRCCFGGRGAIA	0.6461 ± 0.0016
AGRGRGPRSAGS	0.657 ± 0.014

Sequence	protein stability index
GFLGTLARAGRE	0.657 ± 0.068
VMNHYCRFPVST	0.598 ± 0.023
GGHSVRCGGGAL	0.758 ± 0.037
PRLLPPLGFLTF	0.764 ± 0.075
YVVMARWSRWYV	0.522 ± 0.015
TQRLPTPPSIPL	0.672 ± 0.017
PLAPPRSPHLPP	0.673 ± 0.041
ANHRPCIPPPPR	0.657 ± 0.073
LGWLCWQFFGGT	0.795 ± 0.14
TVFPVLTTVEGL	0.688 ± 0.03
AASPHHPSQTAL	0.6831 ± 0.0063
PAPPLPPPAAPP	0.576 ± 0.0069
DRPYPTTFRSSR	0.66 ± 0.017
PPPPRATLPRPP	0.681 ± 0.044
IVPPPHRHRRSI	0.824 ± 0.064
PASFAYRTLNMV	0.661 ± 0.082
APPLPSAPPPPR	0.668 ± 0.031
CFLPGFYFLFSI	0.561 ± 0.033
GISPFYTALSGF	0.754 ± 0.03
NRDSPPAGEIHA	0.648 ± 0.082
PPFRPRPPPPSA	0.812 ± 0.17
PSPLPSPLLTTL	0.6816 ± 0.0062
KEGDMWRVSTLD	0.682 ± 0.016
SYVYMIQRANAV	0.5609 ± 0.004
PRSPPPSSSTPD	0.688 ± 0.036

Sequence	protein stability index
CNGVGRLPGTPG	0.685 ± 0.0086
SGGRRRAGKGAT	0.69 ± 0.049
APSLPPRLPWLY	0.737 ± 0.015
LVPDGFMLALKE	0.686 ± 0.038
SPLPPSRSVHCA	0.748 ± 0.072
DPQQRSNPKPII	0.661 ± 0.032
DTRNKHTKSKCQ	0.741 ± 0.051
PSPLFSGSFLFF	0.716 ± 0.029
TIELNLPPSVVR	0.642 ± 0.037
NRNDKNIERRKM	0.69 ± 0.069
GGVSRRVNGREA	0.708 ± 0.008
FGVVCIGVLGGV	0.5361 ± 0.0014
MTYKSKNRATEE	0.648 ± 0.025
GSPSPLIALSRK	0.689 ± 0.0073
STNIDQKKKEEK	0.7 ± 0.03
SVYLKLSECRSV	0.6877 ± 0.0018
PRPKNQMAIYRE	0.708 ± 0.07
RGIYSIGASGRS	0.695 ± 0.033
IRGGGGLGGGGV	0.703 ± 0.023
SAVVPYLGWSPV	0.708 ± 0.015
VVRLRCSVGWCS	0.575 ± 0.011
